Five molecules from publication PMC3285539 (Nature, 2012) can be followed below.

B3: Rpt6 (natural protein)
chain: MTAAVTSSNIVLETHESGIKPYFEQKIQETELKIRSKTENVRRLEAQRNALNDKVRFIKDELRLLQEPGSYVGEVIKIVSDKKVLVKVQPEGKYIVDVAKDINVKDLKASQRVCLRSDSYMLHKVLENKADPLVSLMMVEKVPDSTYDMVGGLTKQIKEIKEVIELPVKHPELFESLGIAQPKGVILYGPPGTGKTLLARAVAHHTDCKFIRVSGAELVQKYIGEGSRMVRELFVMAREHAPSIIFMDEIDSIGSTRVEGSGGGDSEVQRTMLELLNQLDGFETSKNIKIIMATNRLDILDPALLRPGRIDRKIEFPPPSVAARAEILRIHSRKMNLTRGINLRKVAEKMNGCSGADVKGVCTEAGMYALRERRIHVTQEDFELAVGKVMNKNQETAISVAKLFK

The target of one assay is T1, Rpn1 (S. cerevisiae, UniProt P38764 1-993).
T1 sequence: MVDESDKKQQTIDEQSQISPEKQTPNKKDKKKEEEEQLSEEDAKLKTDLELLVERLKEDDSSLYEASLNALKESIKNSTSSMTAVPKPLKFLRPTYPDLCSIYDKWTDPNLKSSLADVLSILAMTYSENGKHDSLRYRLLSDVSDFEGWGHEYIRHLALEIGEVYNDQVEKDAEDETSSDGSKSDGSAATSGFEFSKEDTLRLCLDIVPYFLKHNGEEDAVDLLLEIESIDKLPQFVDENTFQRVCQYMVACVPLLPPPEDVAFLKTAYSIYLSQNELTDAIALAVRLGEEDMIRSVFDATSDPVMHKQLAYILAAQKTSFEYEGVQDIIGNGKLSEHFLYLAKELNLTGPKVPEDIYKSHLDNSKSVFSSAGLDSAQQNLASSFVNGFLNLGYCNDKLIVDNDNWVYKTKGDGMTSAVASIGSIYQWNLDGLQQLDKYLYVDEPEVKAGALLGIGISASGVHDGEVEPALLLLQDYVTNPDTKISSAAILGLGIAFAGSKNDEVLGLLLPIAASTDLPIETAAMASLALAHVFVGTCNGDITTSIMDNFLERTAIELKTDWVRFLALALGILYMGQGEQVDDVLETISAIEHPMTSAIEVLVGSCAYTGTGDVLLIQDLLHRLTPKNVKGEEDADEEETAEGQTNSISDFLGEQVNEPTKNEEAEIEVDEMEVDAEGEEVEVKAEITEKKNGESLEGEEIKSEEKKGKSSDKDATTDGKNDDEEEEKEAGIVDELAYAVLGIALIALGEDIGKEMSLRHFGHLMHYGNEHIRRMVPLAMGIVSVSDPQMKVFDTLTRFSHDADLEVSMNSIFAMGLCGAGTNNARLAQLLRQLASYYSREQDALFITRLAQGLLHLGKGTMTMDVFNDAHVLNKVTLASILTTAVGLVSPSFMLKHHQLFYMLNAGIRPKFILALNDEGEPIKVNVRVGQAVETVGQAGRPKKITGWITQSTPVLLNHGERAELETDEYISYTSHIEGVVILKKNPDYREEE
Nature of the assay: electron microscopy, variance maps.

The next assay addresses T2, Rpt5 (S. cerevisiae, UniProt P33297 1-434).
T2 sequence: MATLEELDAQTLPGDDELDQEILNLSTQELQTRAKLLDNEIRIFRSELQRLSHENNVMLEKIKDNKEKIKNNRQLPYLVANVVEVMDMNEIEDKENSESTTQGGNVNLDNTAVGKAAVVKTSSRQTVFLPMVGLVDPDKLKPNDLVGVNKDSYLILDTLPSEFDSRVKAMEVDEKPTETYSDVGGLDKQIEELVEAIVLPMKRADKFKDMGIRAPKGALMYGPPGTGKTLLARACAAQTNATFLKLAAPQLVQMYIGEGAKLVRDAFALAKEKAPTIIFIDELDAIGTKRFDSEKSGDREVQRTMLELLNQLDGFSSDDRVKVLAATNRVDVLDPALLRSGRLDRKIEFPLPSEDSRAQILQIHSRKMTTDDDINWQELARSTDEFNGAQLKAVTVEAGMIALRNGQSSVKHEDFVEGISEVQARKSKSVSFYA
Nature of the assay: cryo-EM structure.

For another assay, the target named is T3, Rpn2 (S. cerevisiae, UniProt P32565 1-945).
T3 sequence: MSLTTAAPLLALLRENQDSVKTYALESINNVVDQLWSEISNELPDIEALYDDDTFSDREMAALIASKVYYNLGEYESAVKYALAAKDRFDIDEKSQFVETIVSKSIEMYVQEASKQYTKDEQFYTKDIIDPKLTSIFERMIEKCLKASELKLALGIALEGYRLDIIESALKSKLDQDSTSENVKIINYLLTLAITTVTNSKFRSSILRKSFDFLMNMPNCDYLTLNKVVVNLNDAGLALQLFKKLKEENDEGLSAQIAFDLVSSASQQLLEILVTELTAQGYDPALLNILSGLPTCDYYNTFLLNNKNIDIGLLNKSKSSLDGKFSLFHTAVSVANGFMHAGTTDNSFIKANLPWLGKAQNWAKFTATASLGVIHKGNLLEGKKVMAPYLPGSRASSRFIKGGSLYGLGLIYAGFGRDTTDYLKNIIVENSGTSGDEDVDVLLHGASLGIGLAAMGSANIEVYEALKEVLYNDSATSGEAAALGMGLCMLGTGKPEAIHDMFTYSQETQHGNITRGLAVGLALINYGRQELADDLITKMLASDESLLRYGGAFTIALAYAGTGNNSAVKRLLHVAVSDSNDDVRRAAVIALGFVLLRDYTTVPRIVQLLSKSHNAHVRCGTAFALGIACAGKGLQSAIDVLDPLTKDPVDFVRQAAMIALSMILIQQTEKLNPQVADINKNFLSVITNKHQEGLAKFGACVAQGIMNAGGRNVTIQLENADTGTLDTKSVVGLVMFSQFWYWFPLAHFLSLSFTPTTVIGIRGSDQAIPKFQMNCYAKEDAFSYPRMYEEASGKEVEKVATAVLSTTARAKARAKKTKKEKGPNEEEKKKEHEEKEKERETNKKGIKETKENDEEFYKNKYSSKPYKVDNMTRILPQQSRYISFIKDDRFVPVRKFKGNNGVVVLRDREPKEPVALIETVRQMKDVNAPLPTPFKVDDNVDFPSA
Nature of the assay: cryo-EM structure.

The next assay has as its target T4, Rpn7 (S. cerevisiae, UniProt Q06103 1-429).
T4 sequence: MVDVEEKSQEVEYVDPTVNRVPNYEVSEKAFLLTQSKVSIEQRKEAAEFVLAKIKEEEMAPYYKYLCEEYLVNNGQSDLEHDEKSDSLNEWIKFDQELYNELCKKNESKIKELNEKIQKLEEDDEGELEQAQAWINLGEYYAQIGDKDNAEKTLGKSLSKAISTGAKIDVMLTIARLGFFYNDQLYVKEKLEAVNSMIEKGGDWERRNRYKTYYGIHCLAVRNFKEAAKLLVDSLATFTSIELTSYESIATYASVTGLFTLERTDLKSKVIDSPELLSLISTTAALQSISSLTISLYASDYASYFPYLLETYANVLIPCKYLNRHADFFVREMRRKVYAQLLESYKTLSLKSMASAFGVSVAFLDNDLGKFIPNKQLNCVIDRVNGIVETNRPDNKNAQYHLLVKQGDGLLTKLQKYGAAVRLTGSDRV
The assay is described as follows: cryo-EM structure.

A further assay concerns the target T5, Rpt3 (S. cerevisiae, UniProt P33298 1-428).
T5 sequence: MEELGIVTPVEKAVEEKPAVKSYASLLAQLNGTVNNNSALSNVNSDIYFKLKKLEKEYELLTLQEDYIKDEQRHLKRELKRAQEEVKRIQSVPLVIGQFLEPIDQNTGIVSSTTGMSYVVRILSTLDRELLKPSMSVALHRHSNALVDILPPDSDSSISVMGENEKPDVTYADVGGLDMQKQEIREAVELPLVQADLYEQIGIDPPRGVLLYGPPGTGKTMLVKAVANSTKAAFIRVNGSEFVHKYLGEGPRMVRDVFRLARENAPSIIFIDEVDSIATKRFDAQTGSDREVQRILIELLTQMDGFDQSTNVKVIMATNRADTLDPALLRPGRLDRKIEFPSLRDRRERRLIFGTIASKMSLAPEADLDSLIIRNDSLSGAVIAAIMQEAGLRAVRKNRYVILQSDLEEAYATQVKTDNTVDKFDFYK
The assay is described as follows: cryo-EM structure.

The assay “Rpt6” deals with B3. Nature of the assay: cryo-EM structure.
Another assay has as its target T6, Rpn9 (recombinant lid) (S. cerevisiae, UniProt Q04062 1-393).
T6 sequence: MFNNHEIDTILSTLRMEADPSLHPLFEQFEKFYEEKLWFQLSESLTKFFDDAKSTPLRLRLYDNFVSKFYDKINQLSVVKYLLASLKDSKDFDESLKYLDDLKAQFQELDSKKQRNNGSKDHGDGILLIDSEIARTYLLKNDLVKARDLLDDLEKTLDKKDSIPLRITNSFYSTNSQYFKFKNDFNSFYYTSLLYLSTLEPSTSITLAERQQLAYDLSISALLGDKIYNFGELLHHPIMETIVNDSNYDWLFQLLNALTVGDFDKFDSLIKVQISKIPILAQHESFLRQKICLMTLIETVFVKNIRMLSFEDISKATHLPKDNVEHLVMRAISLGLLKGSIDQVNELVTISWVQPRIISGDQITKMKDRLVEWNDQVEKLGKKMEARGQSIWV
Nature of the assay: negative-stain electron microscopy, 3D reconstruction.

B1: Ubp6 (enzyme)
chain: MSGETFEFNIRHSGKVYPITLSTDATSADLKSKAEELTQVPSARQKYMVKGGLSGEESIKIYPLIKPGSTVMLLGTPDANLISKPAKKNNFIEDLAPEQQVQQFAQLPVGFKNMGNTCYLNATLQALYRVNDLRDMILNYNPSQGVSNSGAQDEEIHKQIVIEMKRCFENLQNKSFKSVLPIVLLNTLRKCYPQFAERDSQGGFYKQQDAEELFTQLFHSMSIVFGDKFSEDFRIQFKTTIKDTANDNDITVKENESDSKLQCHISGTTNFMRNGLLEGLNEKIEKRSDLTGANSIYSVEKKISRLPKFLTVQYVRFFWKRSTNKKSKILRKVVFPFQLDVADMLTPEYAAEKVKVRDELRKVEKEKNEKEREIKRRKFDPSSSENVMTPREQYETQVALNESEKDQWLEEYKKHFPPNLEKGENPSCVYNLIGVITHQGANSESGHYQAFIRDELDENKWYKFNDDKVSVVEKEKIESLAGGGESDSALILMYKGFGL
On to B1, for which, in the assay with Rpn1, the binding result was “binds”.

B2: 20S core subunit α6 (natural protein)
chain: MFRNNYDGDTVTFSPTGRLFQVEYALEAIKQGSVTVGLRSNTHAVLVALKRNADELSSYQKKIIKCDEHMGLSLAGLAPDARVLSNYLRQQCNYSSLVFNRKLAVERAGHLLCDKAQKNTQSYGGRPYGVGLLIIGYDKSGAHLLEFQPSGNVTELYGTAIGARSQGAKTYLERTLDTFIKIDGNPDELIKAGVEAISQSLRDESLTVDNLSIAIVGKDTPFTIYDGEAVAKYI
As to B2, the binding result in the assay with Rpt5 was “binds”. For B3, the binding result with Rpn2 and in the assay with Rpn7 was “binds” each time.

B4: Rpn8 (natural protein)
chain: MSLQHEKVTIAPLVLLSALDHYERTQTKENKRCVGVILGDANSSTIRVTNSFALPFEEDEKNSDVWFLDHNYIENMNEMCKKINAKEKLIGWYHSGPKLRASDLKINELFKKYTQNNPLLLIVDVKQQGVGLPTDAYVAIEQVKDDGTSTEKTFLHLPCTIEAEEAEEIGVEHLLRDVRDQAAGGLSIRLTNQLKSLKGLQSKLKDVVEYLDKVINKELPINHTILGKLQDVFNLLPNLGTPDDDEIDVENHDRINISNNLQKALTVKTNDELMVIYISNLVRSIIAFDDLIENKIQNKKIQEQRVKDKQSKVSDDSESESGDKEATAPLIQRKNKKN
B4: the binding result in the assay with Rpt3 and with Rpt6 was “binds” in each case.

B5: Rpn8 (recombinant lid) (natural protein)
chain: MSLQHEKVTIAPLVLLSALDHYERTQTKENKRCVGVILGDANSSTIRVTNSFALPFEEDEKNSDVWFLDHNYIENMNEMCKKINAKEKLIGWYHSGPKLRASDLKINELFKKYTQNNPLLLIVDVKQQGVGLPTDAYVAIEQVKDDGTSTEKTFLHLPCTIEAEEAEEIGVEHLLRDVRDQAAGGLSIRLTNQLKSLKGLQSKLKDVVEYLDKVINKELPINHTILGKLQDVFNLLPNLGTPDDDEIDVENHDRINISNNLQKALTVKTNDELMVIYISNLVRSIIAFDDLIENKIQNKKIQEQRVKDKQSKVSDDSESESGDKEATAPLIQRKNKKN
As for B5, in the assay with Rpn9 (recombinant lid), the binding result is listed as “binds”.
